Reference: patent US20220306765A1

Assays:
[1] = biological target: human C1q (human) (UniProt P02745); assay: BLI (Octet), biotinylated antibody on sensor, C1q in solution
[2] = biological target: Human FcRn (FCGRT&B2M) Protein (human) (UniProt P55899); assay: BLI (Octet), FcRn on sensor, pH 6.0
[3] = biological target: human FcγRIIIa-F176 (human) (UniProt P08637); assay: BLI (Octet RED96), biotinylated receptor on SA sensor
[4] = biological target: human FcγRIIIa-V176 (human) (UniProt P08637); assay: as above
[5] = biological target: Human FcRn (FCGRT&B2M) Protein (human) (UniProt P55899); assay: BLI (Octet RED96), His-tagged FcRn on Ni-NTA sensor, pH 6.0
[6] = biological target: human FcγRIIa-H167 (human) (UniProt P12318); assay: BLI (Octet), receptor on sensor
[7] = biological target: human FcγRIIIb-NA1 (human) (UniProt O75015); assay: BLI (Octet), receptor on sensor
[8] = biological target: human FcγRIIIa-F176 (human) (UniProt P08637); assay: BLI (Octet), receptor on sensor
[9] = biological target: human FcγRIIIb-NA2 (human) (UniProt O75015); assay: BLI (Octet), receptor on sensor
[10] = biological target: human FcγRIIb (human) (UniProt P31994); assay: BLI (Octet), receptor on sensor
[11] = biological target: human FcγRIIIa-V176 (human) (UniProt P08637); assay: BLI (Octet), receptor on sensor
[12] = biological target: human FcγRIIa-R167 (human) (UniProt P12318); assay: BLI (Octet), receptor on sensor
[13] = biological target: human FcγRI (human) (UniProt P12314); assay: BLI (Octet), receptor on sensor
[14] = biological target: human C1q (human) (UniProt P02745); assay: BLI (Octet RED96), biotinylated antibody on SA sensor, C1q in solution
[15] = biological target: human CLDN18.2 (human); assay: flow cytometry on NCI-H146 cells; unit taken from the concentration axis; fit of the flat control curve

Sequence of human FcγRIIIa-V176 (human) (P08637 17-208 F176V limits assumed): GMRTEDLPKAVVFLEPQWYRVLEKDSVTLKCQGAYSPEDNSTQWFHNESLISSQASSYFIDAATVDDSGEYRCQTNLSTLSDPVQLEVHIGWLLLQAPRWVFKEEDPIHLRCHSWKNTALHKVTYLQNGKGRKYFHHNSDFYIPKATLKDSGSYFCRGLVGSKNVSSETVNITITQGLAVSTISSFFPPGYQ
Sequence of human C1q (human) (P02745 23-245, chain 1 of 3): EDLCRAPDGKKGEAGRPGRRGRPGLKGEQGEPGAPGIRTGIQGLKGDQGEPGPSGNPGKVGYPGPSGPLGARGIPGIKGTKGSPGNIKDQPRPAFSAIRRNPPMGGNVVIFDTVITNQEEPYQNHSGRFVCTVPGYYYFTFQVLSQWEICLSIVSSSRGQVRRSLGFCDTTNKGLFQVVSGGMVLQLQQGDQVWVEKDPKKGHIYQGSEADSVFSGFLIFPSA
Sequence of human C1q (human) (P02746 28-253, chain 2 of 3, further chain): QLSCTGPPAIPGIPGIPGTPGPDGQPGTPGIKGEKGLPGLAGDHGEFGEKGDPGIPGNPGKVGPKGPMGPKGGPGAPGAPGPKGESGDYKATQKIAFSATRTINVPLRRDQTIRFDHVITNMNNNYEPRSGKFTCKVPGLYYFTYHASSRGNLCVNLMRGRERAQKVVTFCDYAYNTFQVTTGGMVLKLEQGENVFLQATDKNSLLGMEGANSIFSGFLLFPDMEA
Sequence of human C1q (human) (P02747 29-245, chain 3 of 3, further chain): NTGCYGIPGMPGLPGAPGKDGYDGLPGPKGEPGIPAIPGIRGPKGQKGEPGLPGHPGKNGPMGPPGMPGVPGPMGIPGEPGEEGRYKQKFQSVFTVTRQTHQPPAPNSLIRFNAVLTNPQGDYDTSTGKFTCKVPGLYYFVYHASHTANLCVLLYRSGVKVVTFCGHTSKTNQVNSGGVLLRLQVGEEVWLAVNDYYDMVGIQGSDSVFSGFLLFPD
Sequence of Human FcRn (FCGRT&B2M) Protein (human) (P55899 24-297 limits assumed, chain 1 of 2): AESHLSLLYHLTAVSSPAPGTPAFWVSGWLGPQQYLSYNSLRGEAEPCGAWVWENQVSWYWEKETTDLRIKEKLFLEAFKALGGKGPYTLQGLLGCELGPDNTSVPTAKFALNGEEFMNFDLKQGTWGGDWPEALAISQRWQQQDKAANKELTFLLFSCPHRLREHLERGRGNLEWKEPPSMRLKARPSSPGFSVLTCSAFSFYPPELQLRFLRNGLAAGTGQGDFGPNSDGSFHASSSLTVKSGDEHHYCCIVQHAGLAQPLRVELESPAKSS
Sequence of Human FcRn (FCGRT&B2M) Protein (human) (P61769 21-119 limits assumed, chain 2 of 2, further chain): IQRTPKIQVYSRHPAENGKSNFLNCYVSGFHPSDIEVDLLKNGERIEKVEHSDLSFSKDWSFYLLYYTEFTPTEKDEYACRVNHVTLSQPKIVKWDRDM
Sequence of human FcγRIIIa-F176 (human) (P08637 17-208 limits assumed): as the sequence (P08637 17-208 F176V limits assumed) above, with V160F counted along it
Sequence of human FcγRIIa-H167 (human) (P12318 36-218 limits assumed): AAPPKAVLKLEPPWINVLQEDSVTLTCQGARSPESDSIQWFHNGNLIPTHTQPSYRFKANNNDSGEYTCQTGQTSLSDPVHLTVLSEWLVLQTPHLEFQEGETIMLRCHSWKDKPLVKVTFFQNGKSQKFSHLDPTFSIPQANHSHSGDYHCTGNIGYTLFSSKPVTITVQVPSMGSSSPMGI
Sequence of human FcγRIIa-R167 (human) (P12318 36-218 H167R limits assumed): as the sequence (P12318 36-218 limits assumed) above, with H132R counted along it
Sequence of human FcγRIIIb-NA2 (human) (O75015 17-200 N65S limits assumed): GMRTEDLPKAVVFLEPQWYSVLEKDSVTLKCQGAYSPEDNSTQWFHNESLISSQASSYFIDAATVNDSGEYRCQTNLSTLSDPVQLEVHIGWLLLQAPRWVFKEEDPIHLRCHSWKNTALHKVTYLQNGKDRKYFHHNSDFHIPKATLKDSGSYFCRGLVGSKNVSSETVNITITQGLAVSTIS
Sequence of human FcγRIIIb-NA1 (human) (O75015 other isoform, or with tags, fused parts or gaps limits assumed): as the sequence (O75015 17-200 N65S limits assumed) above, with S20R, S49N, N66D, I90V counted along it
Sequence of human FcγRI (human) (P12314 16-288 limits assumed): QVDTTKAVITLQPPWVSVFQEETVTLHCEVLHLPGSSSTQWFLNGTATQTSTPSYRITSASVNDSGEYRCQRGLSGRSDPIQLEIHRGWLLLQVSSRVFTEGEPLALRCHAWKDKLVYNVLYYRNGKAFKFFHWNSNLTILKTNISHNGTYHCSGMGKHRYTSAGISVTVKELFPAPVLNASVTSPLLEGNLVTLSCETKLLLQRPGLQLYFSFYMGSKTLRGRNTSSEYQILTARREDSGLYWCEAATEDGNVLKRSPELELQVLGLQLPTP
Sequence of human FcγRIIb (human) (P31994 46-217 limits assumed): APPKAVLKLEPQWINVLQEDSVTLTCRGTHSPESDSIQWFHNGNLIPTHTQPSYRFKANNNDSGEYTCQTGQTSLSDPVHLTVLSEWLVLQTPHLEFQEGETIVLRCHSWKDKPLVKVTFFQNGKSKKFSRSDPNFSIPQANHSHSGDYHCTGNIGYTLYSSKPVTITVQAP

Substance	Kd [1] [nM]	Kd [2] [nM]	Kd [3] [nM]	Kd [4] [nM]	Kd [5] [nM]	Kd [6] [nM]	Kd [7] [nM]	Kd [8] [nM]	Kd [9] [nM]	Kd [10] [nM]	Kd [11] [nM]	Kd [12] [nM]	Kd [13] [nM]	Kd [14] [nM]	EC50 [15] [µg/mL]
IMAB362 (antibody)	21.5	10.5	232	61.5	10.5	193	3970	232	3160	230	61.5	117	5.22	21.5	
Isotype Control (antibody)															3.67
